# Source: the supplement of paper PMC10126150
# ± gives the standard deviation of the averaged measurements.
# Tested on: ATP
# Assay: switch fluorescence ratio, 500 uM ATP over buffer (Cy3 cluster intensity, sum of 5 cycles each) (fold (ratio)); higher = stronger signal-on switching upon ATP binding; sequences stand for … in TCGTCGGCAGCGTCAGATGTGTATAAGAGACAGTTTTTTTTTTTTTTTTTTTTTTTTT…TC
# Settings: aptamer strand: ATP DNA aptamer (quencher-CACCTGGGGGAGTATTGCGGAGGAAGG + anchor), 100 nM annealed; ATP concentration: 500 uM
# Summary of the method: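 Imaging in selection buffer was followed by imaging after 15 min with 500 uM ATP at 22 °C, for Cy3-labelled switching-strand clusters annealed to 100 nM quencher-labelled ATP aptamer on a modified Illumina MiSeq flow-cell. Five of these buffer/ATP cycles ran, separated by NaOH stripping and re-annealing. The fluorescence ratio per cluster is summed target-cycle over summed buffer-cycle Cy3 intensity, averaged per switch-domain sequence; clusters outside 100-1000 RFU were removed.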
# 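Also: ATP exposure 15 min at 22 °C before imaging.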
row,Sequence,switch fluorescence ratio
1,ACAGTACTTT,1.26 ± 0.019
2,GCTATGAGAC,1.03 ± 0.055
3,GAGGGTATTA,1.02 ± 0.019
4,CATTGCTCTG,1.02 ± 0.026
5,GCTCATGAGC,1.007 ± 0.0093
6,TGAGGGGGTT,0.997 ± 0.049
7,CGGTGGTGAG,1.012 ± 0.0049
8,AGGTGGGGTG,1.03 ± 0.023
9,TGAGAGAAGT,0.968 ± 0.071
10,AAGTCCGGGC,1.02 ± 0.018
11,TTTTTTGTCA,1.02 ± 0.042
12,AGAAGAGGGG,0.987 ± 0.044
13,GAGGTACGTA,1.01 ± 0.027
14,ATAGTGGACA,0.9867 ± 0.0019
15,ATTATCTAGG,0.985 ± 0.013
16,AGAATGTAAT,0.9591 ± 0.0014
17,AACTTTACTC,1.55 ± 0.095
18,GTAGGGCGCG,1.021 ± 0.0035
19,AAACGGGTCA,0.983 ± 0.03
20,GATTCGGGGT,1 ± 0.017
21,GAGTGCGACG,1.08 ± 0.078
22,ATAGTAAAAC,1.05 ± 0.02
23,TTTCGACGCT,2.18 ± 0.85

row,Sequence,switch fluorescence ratio
1,TTATGTCAGG,1.04 ± 0.015
2,AATGTAAGGA,1.03 ± 0.065
3,TGATCTCTTT,1.03 ± 0.049
4,CACGTGGGGG,1.007 ± 0.006
5,GTTATTCCAA,1.03 ± 0.028
6,TACGGGGCCA,0.992 ± 0.01
7,AATCTCGTAA,1.02 ± 0.023
8,TATATGCGCG,0.994 ± 0.041
9,TCTGTAGTGG,1.03 ± 0.014
10,GGTATTTGGT,0.988 ± 0.03
11,CGATACGTGG,1.02 ± 0.042
12,TGTGTTTTTT,0.999 ± 0.02
13,CAGTGTCGGG,0.9984 ± 0.0085
14,GGTTTCGTTT,1.002 ± 0.0063
15,TCTCGCCTTT,0.975 ± 0.066
16,AACAGGAAAT,0.9596 ± 0.0032
17,CGGTTTGGAT,1.01 ± 0.035
18,TAAAGGTTGA,1.01 ± 0.012
19,TCTTAGCATA,1.18 ± 0.13
20,GTAATAGGTT,0.956 ± 0.057
21,AGAAGTCGTG,1.02 ± 0.012
22,TCGGGGTGCA,0.9732 ± 0.0086
23,ATGGGAGCTG,0.9831 ± 0.0037

row,Sequence,switch fluorescence ratio
1,GCTGTCGTTA,1.015 ± 0.01
2,TTCGGGCCGA,0.998 ± 0.017
3,GAGGTGATAG,1.036 ± 0.0033
4,AATGGGATGT,0.981 ± 0.017
5,AAAGATAGAT,1.002 ± 0.0027
6,CCGGCGGTTT,1.04 ± 0.029
7,TAAGGGCGTT,0.994 ± 0.022
8,GGGGCCAGGG,1.04 ± 0.054
9,CGGGAACTGT,0.964 ± 0.07
10,TTTTTCGTTT,0.997 ± 0.034
11,GTAACCAATT,1.01 ± 0.021
12,ATATATGCCG,0.985 ± 0.044
13,GTTTTCAGCG,1.01 ± 0.022
14,GTGGGTAGCG,0.994 ± 0.013
15,TCCAGAGATG,0.997 ± 0.028
16,TTTCGTTTTG,0.998 ± 0.016
17,GGTACAAGG,1.01 ± 0.029
18,CACTTTCATG,1.013 ± 0.0021
19,ACTATGGGGC,1.01 ± 0.081
20,TACGAGTTCT,0.984 ± 0.013
21,TTGGGGGGAC,1.03 ± 0.029
22,TTTATATTTC,0.99 ± 0.046
23,TGGTGTGGAA,0.9806 ± 0.0027

row,Sequence,switch fluorescence ratio
1,TTTTATTAGA,0.974 ± 0.065
2,ACAGTAGTAG,1.07 ± 0.026
3,TATGATGTTA,0.9931 ± 0.0093
4,ATACAGGGTG,1.24 ± 0.019
5,CATTTTCTC,1.038 ± 0.0086
6,ATGATAAAAT,1.11 ± 0.13
7,GCCGGGGACG,1.01 ± 0.011
8,GGAAACTCGG,0.986 ± 0.029
9,ATCAGACGGG,1 ± 0.025
10,GGGGTGGGCG,1.01 ± 0.058
11,TTGGTTGTGG,0.972 ± 0.018
12,TAATTTGAGG,0.955 ± 0.012
13,TATTAGTTGG,0.971 ± 0.023
14,TTTTAAATTG,0.964 ± 0.023
15,CGTATCAAAA,1.02 ± 0.019
16,TTTTTTGATC,0.999 ± 0.034
17,TTGATTGGGG,0.989 ± 0.029
18,TGGTCGTATT,0.9577 ± 0.0063
19,GGCACTATAA,1.03 ± 0.023
20,AGACTGAGTT,0.984 ± 0.016
21,AGGTTAAAA,1.03 ± 0.075
22,GGATTAGGCG,0.981 ± 0.018
23,TTATTATTT,0.994 ± 0.11

row,Sequence,switch fluorescence ratio
1,GTGTTGCCCG,1.07 ± 0.038
2,TTGTTTGGGT,0.984 ± 0.014
3,GTGGAGGTTG,0.984 ± 0.03
4,TTGCATTGGA,0.9885 ± 0.0079
5,TTTAAAGTGA,1 ± 0.032
6,CGGCAAGAGT,1.479 ± 0.0019
7,TTGTATCAGG,1 ± 0.02
8,AACATATATT,1.02 ± 0.028
9,AGTCAGGGTC,0.99 ± 0.032
10,TCCGGGATGG,1.33 ± 0.39
11,GTGCGATGTA,1.02 ± 0.031
12,TTTATCGGCT,1.06 ± 0.078
13,GATGCGGGAG,1.0227 ± 0.00027
14,TTGGGGGTT,1.03 ± 0.017
15,GTAGAAAAAG,1.99 ± 1.4
16,CGTCGGGAAT,1.35 ± 0.051
17,CCATGTGTG,1.02 ± 0.024
18,CCACTTGAAA,1 ± 0.018
19,GTTTTGTTCC,1.019 ± 0.0041
20,CGTATATGTG,0.989 ± 0.035
21,TGTCGCGTAG,0.993 ± 0.034
22,GAGTTGTTAT,0.973 ± 0.037
23,TTTGGTGGTC,0.971 ± 0.022

row,Sequence,switch fluorescence ratio
1,GCGTGCTGAA,1.04 ± 0.043
2,CGCATGGGGT,1.0574 ± 1.7e-05
3,TATTTGTTTT,0.998 ± 0.039
4,CGGTTTCTTT,0.967 ± 0.053
5,GGGGATTCAT,0.986 ± 0.012
6,TCTGGGGTGG,1.16 ± 0.21
7,GCTTGAATTT,0.984 ± 0.02
8,AACAGCACGA,1.28 ± 0.1
9,TTCGGGGCGC,1.03 ± 0.065
10,TCTTTGTTG,1.02 ± 0.02
11,CTTCGTGCGA,1.14 ± 0.023
12,TTTTAGGTTA,0.986 ± 0.027
13,AGTGGAGCGG,0.995 ± 0.016
14,TTTTCTCTGT,0.967 ± 0.023
15,CTTGTTGATT,1.009 ± 0.0056
16,AAAGGGGTTT,1.02 ± 0.022
17,GAGTGGGGTA,1 ± 0.011
18,CGTGTGAGAC,1.02 ± 0.014
19,GAGACCTATT,0.993 ± 0.035
20,CATGGAGGGG,0.9617 ± 0.0061
21,CATGGATACA,0.978 ± 0.052
22,TATAAGAGTG,1.03 ± 0.032
23,GCTAGGGTGG,0.994 ± 0.018

row,Sequence,switch fluorescence ratio
1,ATTGCTTACG,1.14 ± 0.19
2,TATGAGGAGT,0.982 ± 0.015
3,GGAGTAGGTA,1 ± 0.031
4,ACAGGACTTA,1.09 ± 0.021
5,TAGGGTTGGA,1 ± 0.018
6,TGAAGATGTG,0.993 ± 0.02
7,ATTTGGCGTG,1.01 ± 0.099
8,GGGTTCTATT,1 ± 0.014
9,CAGGCGGTTT,0.969 ± 0.029
10,GTTTGTGGGC,1.01 ± 0.077
11,TATTTCTGTT,0.984 ± 0.025
12,TCTTTTATTT,0.998 ± 0.043
13,AGAGAGGGTT,0.986 ± 0.019
14,CGGTGGCTCC,1.026 ± 0.0025
15,TTTTTGATAG,0.9847 ± 0.0057
16,ATATAGGGGC,1.02 ± 0.046
17,TAAAGATAGG,1.026 ± 0.0036
18,CTGTTACGCA,1.201 ± 0.0046
19,TGGTTTTTAG,1.05 ± 0.033
